Laboratory results from article PMC6205638, “Exploring natural genetic variation in tomato sucrose synthases on the basis of increased kinetic properties” (PLoS ONE, 2018).

Target: Tomato sucrose synthase SuSy3-haplotype#1 (cv Moneymaker) (S. lycopersicum cv Moneymaker)
Assay: native gel or EMSA; Native PAGE on Mini-PROTEAN TGX gel 4-20% of the IMAC-purified product; size estimated against a prestained protein ladder

Question: “Tomato sucrose synthase SuSy3-haplotype#1 (cv Moneymaker) (enzyme)” was tested. Which stoichiometry N did it give?
Answer: 4
